Experimental data from patent US20170327594A1 (UNIVERSIT T STUTTGART, published 2017).

Assays:
HER2-Fc fusion protein = target: T1, HER2-Fc fusion protein (UniProt P04626 23-652, limits assumed); assay: ELISA on immobilized HER2-Fc
T1 construct: extracellular domain; also called Fc fusion protein of the extracellular region of HER2; not shown: Fc part

EGFR on tumor cell lines [1] = target: T2, EGFR on tumor cell lines (UniProt P00533 25-1210, limits assumed); assay: flow cytometry, Colo205 and NCI-H460 cells
T2 construct: whole, on cells; Endogenous receptor of tumor cell lines; also called EGFR on A431, HT1080, NCI-H460, Colo205 cells

EGFR-Fc fusion protein [2] = target: T3, EGFR-Fc fusion protein (UniProt P00533 25-645, limits assumed); assay: ELISA on immobilized EGFR-Fc
T3 construct: extracellular domain; also called Fc fusion protein of the extracellular region of EGFR; immobilized EGFR; not shown: Fc part

EGFR on tumor cell lines [3] = target: T2, EGFR on tumor cell lines; assay: flow cytometry, NCI-H460 cells
Protocol: Bound proteins were detected with a FITC-labelled anti-His-tag antibody.
Furthermore, the antibody-MHD2 fusion proteins were analyzed by flow cytometry for binding to different tumor cell lines expressing various amounts of EGFR and HER2 (FIG. 4b).

EGFR-Fc fusion protein [4] = target: T3, EGFR-Fc fusion protein; assay: ELISA on immobilized receptor-Fc
HER3-Fc fusion protein = target: T4, HER3-Fc fusion protein (UniProt P21860 20-643, limits assumed); assay: ELISA on immobilized receptor-Fc
T4 construct: extracellular domain; Negative control; also called Fc fusion protein of the extracellular region of HER3; not shown: Fc part

[5] = target: T5, recombinant TRAIL-R1 (receptor-Fc fusion protein) (UniProt O00220 24-239, limits assumed); assay: ELISA on recombinant receptor-Fc
T5 construct: also called TRAIL receptor 1; not shown: Fc part

EGFR on tumor cell lines [6] = target: T2, EGFR on tumor cell lines; assay: cell-based or functional assay
EGFR on tumor cell lines [7] = target: T2, EGFR on tumor cell lines; assay: cell-based or functional assay; remark: listed apart in the source
EGFR-Fc fusion protein [8] = target: T3, EGFR-Fc fusion protein; assay: ELISA titration on immobilized EGFR; the scFv is the weaker comparator

B1: scFvEGFR-EHD2 (scFv)
chain: DAAQPAMAEVQLVESGGGLVQPGGSLRLSCAASGFSLTNYGVHWVRQAPGKGLEWLGVIWSGGNTDYNTPFTSRFTISRDNSKNTLYLQMNSLRAEDTAVYYCARALTYYDYEFAYWGQGTTVTVSSGGGGSGGGGSGGGGSDIQLTQSPSFLSASVGDRVTITCRASQSIGTNIHWYQQKPGKAPKLLIKYASESISGVPSRFSGSGSGTEFTLTISSLQPEDFATYYCQQNNNWPTTFGAGTKLEIKRGSLGGSGGDFTPPTVKILQSSCDGGGHFPPTIQLLCLVSGYTPGTINITWLEDGQVMDVDLSTASTTQEGELASTQSELTLSQKHWLSDRTYTCQVTYQGHTFEDSTKKCADSNGGGSGGGTGSEFAAAHHHHHH
notes: Bivalent homodimer: anti-EGFR scFv at the N-terminus of the IgE heavy chain domain 2, hexahistidyl-tagged; also called scFv-EHD2
B1: no binding (HER2-Fc fusion protein); binds (EGFR on tumor cell lines [1]); binds (EGFR-Fc fusion protein [2]).

B2: scFvEGFR-MHD2 (scFv)
chain: DAAQPAMAEVQLVESGGGLVQPGGSLRLSCAASGFSLTNYGVHWVRQAPGKGLEWLGVIWSGGNTDYNTPFTSRFTISRDNSKNTLYLQMNSLRAEDTAVYYCARALTYYDYEFAYWGQGTTVTVSSGGGGSGGGGSGGGGSDIQLTQSPSFLSASVGDRVTITCRASQSIGTNIHWYQQKPGKAPKLLIKYASESISGVPSRFSGSGSGTEFTLTISSLQPEDFATYYCQQNNNWPTTFGAGTKLEIKRGSLGGSGGAELPPKVSVFVPPRDGFFGNPRKSKLICQATGFSPRQIQVSWLREGKQVGSGVTTDQVQAEAKESGPTTYKVTSTLTIKESDWLGQSMFTCRVDHRGLTFQQNASSMCVPDGGGSGGGTGSEFAAAHHHHHH
notes: Bivalent homodimer: humanized anti-EGFR scFv (hu225) at the N-terminus of the IgM heavy chain domain 2, C-terminal His6; also called scFvA-MHD2; scFv-MHD2
B2: binds (EGFR on tumor cell lines [3]); binds (EGFR-Fc fusion protein [4]); no binding (HER3-Fc fusion protein).

B3: scFvEGFR-EHD2-scTRAIL (other)
chain: DYKDDDDKGGGGSAAQPAMAEVQLVESGGGLVQPGGSLRLSCAASGFSLTNYGVHWVRQAPGKGLEWLGVIWSGGNTDYNTPFTSRFTISRDNSKNTLYLQMNSLRAEDTAVYYCARALTYYDYEFAYWGQGTTVTVSSGGGGSGGGGSGGGGSDIQLTQSPSFLSASVGDRVTITCRASQSIGTNIHWYQQKPGKAPKLLIKYASESISGVPSRFSGSGSGTEFTLTISSLQPEDFATYYCQQNNNWPTTFGAGTKLEIKRAAAGGSGGDFTPPTVKILQSSCDGGGHFPPTIQLLCLVSGYTPGTINITWLEDGQVMDVDLSTASTTQEGELASTQSELTLSQKHWLSDRTYTCQVTYQGHTFEDSTKKCADSNGGSGGEFTRGTSEETISTVQEKQQNISPLVRERGPQRVAAHITGTRGRSNTLSSPNSKNEKALGRKINSWESSRSGHSFLSNLHLRNGELVIHEKGFYYIYSQTYFRFQEEIKENTKNDKQMVQYIYKYTSYPDPILLMKSARNSCWSKDAEYGLYSIYQGGIFELKENDRIFVSVTNEHLIDMDHEASFFGAFLVGGGGSGGGSTSEETISTVQEKQQNISPLVRERGPQRVAAHITGTRGRSNTLSSPNSKNEKALGRKINSWESSRSGHSFLSNLHLRNGELVIHEKGFYYIYSQTYFRFQEEIKENTKNDKQMVQYIYKYTSYPDPILLMKSARNSCWSKDAEYGLYSIYQGGIFELKENDRIFVSVTNEHLIDMDHEASFFGAFLVGGGGSGGGSTSEETISTVQEKQQNISPLVRERGPQRVAAHITGTRGRSNTLSSPNSKNEKALGRKINSWESSRSGHSFLSNLHLRNGELVIHEKGFYYIYSQTYFRFQEEIKENTKNDKQMVQYIYKYTSYPDPILLMKSARNSCWSKDAEYGLYSIYQGGIFELKENDRIFVSVTNEHLIDMDHEASFFGAFLVG
notes: Homodimer: anti-EGFR scFv, EHD2, single-chain TRAIL, FLAG-tagged; also called scFv-EHD2-scTRAIL; anti-EGFR scFv-EHD2-scTRAIL
B3 was tested, and the binding result [5] was “binds”, the “cytotoxic activity against EHD2-scTRAIL, no bortezomib (NCI-H460, Colo205)” value (EGFR on tumor cell lines [6]) was about 20 fold and the “IC50 (nM), in vitro cytotoxicity, Colo205, no bortezomib, no cetuximab” value (EGFR on tumor cell lines [7]) was 0.5 nM. For the same binder, the “IC50 (nM), in vitro cytotoxicity, Colo205, with bortezomib, no cetuximab” value (EGFR on tumor cell lines [7]) was 0.14 nM, the “IC50 (nM), in vitro cytotoxicity, Colo205, with bortezomib, with cetuximab” value (EGFR on tumor cell lines [7]) was 1.43 nM and the “IC50 (nM), in vitro cytotoxicity, NCI-H460, no bortezomib, no cetuximab” value (EGFR on tumor cell lines [7]) was 0.32 nM. The “IC50 (nM), in vitro cytotoxicity, NCI-H460, with bortezomib, no cetuximab” value (EGFR on tumor cell lines [7]) was 0.02 nM, the “IC50 (nM), in vitro cytotoxicity, NCI-H460, with bortezomib, with cetuximab” value (EGFR on tumor cell lines [7]) was 0.15 nM and the binding result (HER2-Fc fusion protein) was “no binding”.

B4: anti-EGFR scFv (hu225) (scFv)
scFv: EVQLVESGGGLVQPGGSLRLSCAASGFSLTNYGVHWVRQAPGKGLEWLGVIWSGGNTDYNTPFTSRFTISRDNSKNTLYLQMNSLRAEDTAVYYCARALTYYDYEFAYWGQGTTVTVSSGGGGSGGGGSGGGGSDIQLTQSPSFLSASVGDRVTITCRASQSIGTNIHWYQQKPGKAPKLLIKYASESISGVPSRFSGSGSGTEFTLTISSLQPEDFATYYCQQNNNWPTTFGAGTKLEIKR
notes: also called monovalent anti-EGFR scFv; scFv directed against EGFR
B4: binds (EGFR-Fc fusion protein [8]).
